Reference: article PMC2946590, “Replication Past the γ-Radiation-Induced Guanine-Thymine Cross-Link G[8,5-Me]T by Human and Yeast DNA Polymerase η” (Journal of Nucleic Acids, 2010)

B1: yeast DNA polymerase η (yPol η) (Saccharomyces cerevisiae S288C) (protein)
chain: MSKFTWKELIQLGSPSKAYESSLACIAHIDMNAFFAQVEQMRCGLSKEDPVVCVQWNSIIAVSYAARKYGISRMDTIQEALKKCSNLIPIHTAVFKKGEDFWQYHDGCGSWVQDPAKQISVEDHKVSLEPYRRESRKALKIFKSACDLVERASIDEVFLDLGRICFNMLMFDNEYELTGDLKLKDALSNIREAFIGGNYDINSHLPLIPEKIKSLKFEGDVFNPEGRDLITDWDDVILALGSQVCKGIRDSIKDILGYTTSCGLSSTKNVCKLASNYKKPDAQTIVKNDCLLDFLDCGKFEITSFWTLGGVLGKELIDVLDLPHENSIKHIRETWPDNAGQLKEFLDAKVKQSDYDRSTSNIDPLKTADLAEKLFKLSRGRYGLPLSSRPVVKSMMSNKNLRGKSCNSIVDCISWLEVFCAELTSRIQDLEQEYNKIVIPRTVSISLKTKSYEVYRKSGPVAYKGINFQSHELLKVGIKFVTDLDIKGKNKSYYPLTKLSMTITNFDIIDLQKTVVDMFGNQVHTFKSSAGKEDEEKTTSSKADEKTPKLECCKYQVTFTDQKALQEHADYHLALKLSEGLNGAEESSKNLSFGEKRLLFSRKRPNSQHTATPQKKQVTSSKNILSFFTRKK
notes: recombinant, purchased from Enzymax LLC (Lexington, KY)
B2: human DNA polymerase η (hPol η) (Homo sapiens) (protein)
chain: MATGQDRVVALVDMDCFFVQVEQRQNPHLRNKPCAVVQYKSWKGGGIIAVSYEARAFGVTRSMWADDAKKLCPDLLLAQVRESRGKANLTKYREASVEVMEIMSRFAVIERASIDEAYVDLTSAVQERLQKLQGQPISADLLPSTYIEGLPQGPTTAEETVQKEGMRKQGLFQWLDSLQIDNLTSPDLQLTVGAVIVEEMRAAIERETGFQCSAGISHNKVLAKLACGLNKPNRQTLVSHGSVPQLFSQMPIRKIRSLGGKLGASVIEILGIEYMGELTQFTESQLQSHFGEKNGSWLYAMCRGIEHDPVKPRQLPKTIGCSKNFPGKTALATREQVQWWLLQLAQELEERLTKDRNDNDRVATQLVVSIRVQGDKRLSSLRRCCALTRYDAHKMSHDAFTVIKNCNTSGIQTEWSPPLTMLFLCATKFSASAPSSSTDITSFLSSDPSSLPKVPVTSSEAKTQGSGPAVTATKKATTSLESFFQKAAERQKVKEASLSSLTAPTQAPMSNSPSKPSLPFQTSQSTGTEPFFKQKSLLLKQKQLNNSSVSSPQQNPWSNCKALPNSLPTEYPGCVPVCEGVSKLEESSKATPAEMDLAHNSQSMHASSASKSVLEVTQKATPNPSLLAAEDQVPCEKCGSLVPVWDMPEHMDYHFALELQKSFLQPHSSNPQVVSAVSHQGKRNPKSPLACTNKRPRPEGMQTLESFFKPLTH
notes: as for B1

Columns and labels:
purified protein [1] = substrate: Nc1ncnc2c1ncn2[C@H]1C[C@H](O)[C@@H](COP(=O)(O)OP(=O)(O)OP(=O)(O)O)O1; experiment: purified protein; assay type: biochemical, Saccharomyces cerevisiae; settings: undamaged 26-mer template, misincorporation opposite G, 6.4 nM enzyme, 50 nM template-primer, 25 mM Tris-HCl pH 7.5, 5 mM MgCl2, 5 mM DTT, 37 °C
purified protein [2] = substrate: Nc1ncnc2c1ncn2[C@H]1C[C@H](O)[C@@H](COP(=O)(O)OP(=O)(O)OP(=O)(O)O)O1; experiment: purified protein; assay type: biochemical, Homo sapiens; settings: undamaged 26-mer template, misincorporation opposite G, 6.4 nM enzyme, 50 nM template-primer, 25 mM Tris-HCl pH 7.5, 5 mM MgCl2, 5 mM DTT, 37 °C

| Protein | Km (purified protein [1]) [µM] | kcat (purified protein [1]) [s⁻¹] | kcat/Km (purified protein [1]) [M⁻¹ s⁻¹] | Km (purified protein [2]) [µM] | kcat (purified protein [2]) [s⁻¹] | kcat/Km (purified protein [2]) [M⁻¹ s⁻¹] |
| --- | --- | --- | --- | --- | --- | --- |
| B1 | 9.5 ± 0.002 | 0.0883 ± 0.0005 | 9330 | – | – | – |
| B2 | – | – | – | 6.5 ± 0.03 | 0.104 ± 0.00017 | 16000 |
